The target of one experiment is T1, BC2T D2R (human).
T1 construct: position 2 library, row R
T1 peptide: Ac-PRRKAAVSHWQQ-NH2
Briefly: library pulldown, LC-MS of supernatant; ratio vs GFP-Nb control (0=captured, 1=not captured). An outline of the steps:
(§1)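 Unbound peptide left in supernatant after 1 h pulldown in PBS/0.01% CHAPS measured by reversed-phase LC-MS (8–30% eluent B gradient, 20 min).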

The target of the next experiment is T2, BC2T D2Y (human).
T2 construct: position 2 library, row Y
T2 peptide: Ac-PYRKAAVSHWQQ-NH2
Described as above. An outline of the steps: as §1

The next experiment deals with T3, BC2T V7R (human).
T3 construct: position 7 library, row R
T3 peptide: Ac-PDRKAARSHWQQ-NH2
The experiment is described as above. A digest of the protocol:
as §1

For the next experiment, the target named is T4, BC2T V7P (human).
T4 construct: position 7 library, row P
T4 peptide: Ac-PDRKAAPSHWQQ-NH2
Described as above. An outline of the steps:
as §1

The next experiment addresses T5, BC2T A6Y (human).
T5 construct: position 6 library (BC2TA6X), row Y
T5 peptide: Ac-PDRKAYVSHWQQ-NH2
Described as above. An outline of the steps: as §1

For another experiment, the target named is T6, BC2T P1R (human).
T6 construct: position 1 library, row R
T6 peptide: Ac-RDRKAAVSHWQQ-NH2
The description is as above. An outline of the steps:
as §1

A further experiment deals with T7, BC2T P1S (human).
T7 construct: position 1 library, row S
T7 peptide: Ac-SDRKAAVSHWQQ-NH2
Described as above. An outline of the steps:
as §1

The next experiment deals with T8, BC2T V7N (human).
T8 construct: position 7 library, row N
T8 peptide: Ac-PDRKAANSHWQQ-NH2
The experiment is described as above. An outline of the steps: as §1

In a further experiment the target is T9, BC2T P1E (human).
T9 construct: position 1 library, row E
T9 peptide: Ac-EDRKAAVSHWQQ-NH2
The experiment is described as above. A digest of the protocol: as §1

The next experiment has as its target T10, BC2T A5P (human).
T10 construct: position 5 library, row P
T10 peptide: Ac-PDRKPAVSHWQQ-NH2
Described as above. A digest of the protocol: as §1

A further experiment concerns the target T11, BC2T A6W (human).
T11 construct: position 6 library (BC2TA6X), row W
T11 peptide: Ac-PDRKAWVSHWQQ-NH2
Described as above. An outline of the steps: as §1

The target in another experiment is T12, BC2T V7W (human).
T12 construct: position 7 library, row W
T12 peptide: Ac-PDRKAAWSHWQQ-NH2
Described as above. A digest of the protocol: as §1

In a further experiment the target is T13, BC2T R3H (human).
T13 construct: position 3 library (BC2TR3X), row H
T13 peptide: Ac-PDHKAAVSHWQQ-NH2
The experiment is described as above. An outline of the steps: as §1

The next experiment has as its target T14, BC2T V7T (human).
T14 construct: position 7 library, row T
T14 peptide: Ac-PDRKAATSHWQQ-NH2
Described as above. A digest of the protocol: as §1

The next experiment addresses T15, BC2T P1F (human).
T15 construct: position 1 library, row F
T15 peptide: Ac-FDRKAAVSHWQQ-NH2
Described as above. An outline of the steps:
as §1

The target of another experiment is T16, BC2T A5S (human).
T16 construct: position 5 library, row S
T16 peptide: Ac-PDRKSAVSHWQQ-NH2
The experiment is described as above. A digest of the protocol:
as §1

For another experiment, the target named is T17, BC2T V7C(Abu) (human, also: Abu described as gamma-amino butyric acid).
T17 construct: position 7 library, row C(Abu) / C*
T17 peptide: Ac-PDRKAA[GABA]SHWQQ-NH2
The description is as above. A digest of the protocol:
as §1

The next experiment addresses T18, BC2T V7F (human).
T18 construct: position 7 library, row F
T18 peptide: Ac-PDRKAAFSHWQQ-NH2
The experiment is described as above. A digest of the protocol: as §1

The target of another experiment is T19, BC2T A5Q (human).
T19 construct: position 5 library, row Q
T19 peptide: Ac-PDRKQAVSHWQQ-NH2
The description is as above. A digest of the protocol: as §1

A further experiment deals with T20, BC2T R3Q (human).
T20 construct: position 3 library (BC2TR3X), row Q
T20 peptide: Ac-PDQKAAVSHWQQ-NH2
The description is as above. An outline of the steps:
as §1

The target of a further experiment is T21, BC2T P1Y (human).
T21 construct: position 1 library, row Y
T21 peptide: Ac-YDRKAAVSHWQQ-NH2
Described as above. A digest of the protocol: as §1

The target of another experiment is T22, BC2T S8(I/L2) (N-terminal acetyl; C-terminal amide).
T22 construct: positional scanning library member; I or L not resolved
Briefly: positional peptide library pulldown on immobilised Nb, LC-MS of supernatant; signal ratio to control GFP-Nb (1 = not captured, near 0 = captured). The text has this: In total, 12 different BC2T libraries displaying all 20 proteinogenic amino acids in one single position of the peptide were used in immunoprecipitation experiments. […] The direct comparison with the GFP-Nb made it possible to determine the quantitative degree of peptide capture without the need of labeled standards. […] The more peptide was captured the more the value approximates 0. It was not possible to discriminate between isoleucine (I) and leucine (L) peptide versions since these peptides are isobaric.
To investigate the binding specificity of the BC2T and derived mutants peptide libraries for each amino acid position of the sequence […] (SEQ ID NO:4) were synthesized with acetyl and amide groups located at the N-termini or C-termini respectively (Intavis). […] Incubations were performed in 300 μl PBS/0.01% CHAPS for 1 h on a HulaMixer (Life Technologies). Subsequent to a centrifugation step 10 μl supernatant were analyzed in a LC-MS procedure. Peptides were separated using an UltiMate3000 RSLCnano System (Thermo Scientific), composed of a C18 PepMap100μ-Precolumn (300 μm×5 mm; particle size: 5 μm; pore size: 100 Å—Thermo Scientific) and a C18 analytical column (Acclaim Rapid Separation LC (RSLC) Column: 150 mm×5 mm; particle size: 2.2 μm; pore size: 100 Å—Thermo Scientific). A step gradient was applied starting at 8% and ending after 20 min at 30% eluent B (80% acetonitrile, 20% H₂O, 0.1% formic acid).

Square brackets hold non-standard residues; d marks the D form. GABA = NCCCC(=O)O

B1: BC2 nanobody (BC2-Nb) (VHH)
VHH: QVQLVESGGGLVQPGGSLTLSCTASGFTLDHYDIGWFRQAPGKEREGVSCINNSDDDTYYADSVKGRFTIFMDNAKDTVYLQMNSLKPEDTAIYYCAEARGCKRGRYEYDFWGQGTQVTVSS
notes: immobilised on agarose/sepharose beads in this assay; also called BC2 nanotrap (immobilised form); not shown: C-terminal 6xHis-tag added by pHEN6 vector
In the case of B1, the ratio in the experiment with BC2T D2R turned out to be 0.1; in the experiment with BC2T D2Y it was 0.1; with BC2T V7R, 0.2; with BC2T V7P it was 1; with BC2T A6Y, 1; with BC2T P1R, 0.2. The ratio in the experiment with BC2T P1S came out at 0.3; in the experiment with BC2T V7N it was 0.2; with BC2T P1E, 0.9; with BC2T A5P, 0.1; in the experiment with BC2T A6W, 1.1; with BC2T V7W, 0.1. Besides, the ratio came out at 0.3 with BC2T R3H; 0.2 with BC2T V7T; 0.2 with BC2T P1F; 0.1 with BC2T A5S; 0.2 with BC2T V7C(Abu); 0.2 with BC2T V7F. In addition, the ratio with BC2T A5Q was found to be 0.2; in the experiment with BC2T R3Q, 0.5; with BC2T P1Y, 0.1.

B2: BC2 nanobody (VHH)
VHH: QVQLVESGGGLVQPGGSLTLSCTASGFTLDHYDIGWFRQAPGKEREGVSCINNSDDDTYYADSVKGRFTIFMDNAKDTVYLQMNSLKPEDTAIYYCAEARGCKRGRYEYDFWGQGTQVTVSS
notes: immobilised on beads in this assay; also called BC2-Nb; BC2 nanotrap (immobilised)
Regarding B2, the ratio in the experiment with BC2T S8(I/L2) came out at 0.7.

B3: BC2-NbR106S (VHH)
VHH: QVQLVESGGGLVQPGGSLTLSCTASGFTLDHYDIGWFRQAPGKEREGVSCINNSDDDTYYADSVKGRFTIFMDNAKDTVYLQMNSLKPEDTAIYYCAEARGCKRGSYEYDFWGQGTQVTVSS
notes: headlock mutant of BC2-Nb; immobilised on beads in this assay
For B3, the ratio with BC2T S8(I/L2) is 0.9.

B4: BC2-NbR106S (VHH)
VHH: QVQLVESGGGLVQPGGSLTLSCTASGFTLDHYDIGWFRQAPGKEREGVSCINNSDDDTYYADSVKGRFTIFMDNAKDTVYLQMNSLKPEDTAIYYCAEARGCKRGSYEYDFWGQGTQVTVSS
notes: immobilised on beads in this assay; not shown: C-terminal 6xHis-tag added by pHEN6 vector
In the case of B4, the ratio with BC2T D2R was determined as 0.2; in the experiment with BC2T D2Y it was 0.2; with BC2T V7R, 0.2; with BC2T V7P, 1; in the experiment with BC2T A6Y it was 0.9; in the experiment with BC2T P1R it was 0.4. For the same molecule, the ratio with BC2T P1S was found to be 0.6; with BC2T V7N, 0.4; with BC2T P1E, 0.8; with BC2T A5P, 0.4; with BC2T A6W, 1; in the experiment with BC2T V7W, 0.3. For the same molecule, the ratio is 0.7 in the experiment with BC2T R3H; 0.3 in the experiment with BC2T V7T; 0.3 with BC2T P1F; 0.4 with BC2T A5S; 0.5 with BC2T V7C(Abu); 0.4 with BC2T V7F. In addition, the ratio was 0.3 in the experiment with BC2T A5Q, 0.9 in the experiment with BC2T R3Q and 0.3 with BC2T P1Y.
